Results reported in PMC9691366, “Modulating the pharmacokinetic profile of Actinium-225-labeled macropa-derived radioconjugates by dual targeting of PSMA and albumin” (Theranostics, 2022).

Legend:
[1] = Ex vivo biodistribution in LNCaP tumor-bearing SCID mice; conditions: mouse, in vivo, 50 kBq per mouse; for tissue uptake at 1 h: 1 h p.i.; for tissue uptake at 4 h: 4 h p.i.; for tissue uptake at 24 h: 24 h p.i.; for tissue uptake at 48 h: 48 h p.i.; for tissue uptake at 72 h: 72 h p.i.; for tissue uptake at 120 h: 120 h p.i.; for tissue uptake at 168 h: 168 h p.i.
Text: (§1) The biodistribution experiments with [^225Ac]Ac-mcp-M-alb-PSMA and [^225Ac]Ac-mcp-D-alb-PSMA were accomplished using LNCaP tumor-bearing mice. The SCID male mice (ENVIGO, Indianapolis, IN, USA) 8 weeks old were subcutaneously xenografted into the right flank with 10∙10^6 LNCaP cells (ATCC, Manassas, VA, USA) mixed with Matrigel Matrix (Corning Inc., Corning, NY, USA) at a 1:1 ratio. The tumor growth was periodically monitored by caliper-based measurements. When the tumor volume reached 200-300 mm^3 (i.e., approx. 6 weeks after the xenografting of the cells), the mice were enrolled in the biodistribution study. All experimental animals were housed in a specific-pathogen-free animal facility and all experiments with animals were performed in accordance with appropriate legal norms (Czech Law No. 246/1992) and with the approval of the Ministry of Education, Youth and Sports (MSMT-35035/2019-3) and approval of the Ethical committee of Faculty of Medicine and Dentistry, Palacky University in Olomouc. The number of animals was reduced as much as possible (n = 3-4 per group and time point) for in vivo experiments in order to strictly follow 3Rs principle.
(§2) For the purpose of biodistribution studies, the ^225Ac-radioconjugates were diluted with saline. The diluted ^225Ac-radioconjugates were applied retro-orbitally (r.o.) to the experimental animals at a dose of 50 kBq per mouse corresponding to 10 pmol of the PSMA-inhibitor. The radioactivity application was carried out under 2% isoflurane anesthesia (FORANE, Abbott Laboratories, Abbott Park, IL, USA) to minimize animal suffering and to prevent animal motion. The mice were sacrificed by cervical dislocation 1, 4, 24, 48, 72, and 120 h (plus 168 h for [^225Ac]Ac-mcp-D-alb-PSMA) post-injection and organs of interest (blood, spleen, pancreas, stomach, intestine, kidneys, liver, heart, lungs, muscle, bone, and tumor) were collected. The organs were weighed, and their radioactivity was counted on an automatic gamma counter. The uptake of the ^225Ac-radioconjugates was expressed as a percentage of injected dose per gram of the corresponding organ (%ID/g). The area under the curve (AUC) was determined for both tested PSMA ligands from non-decay-corrected data obtained from the ex vivo biodistribution data of the tumors, kidneys, and blood.

[2] = tested on: LNCaP tumor-bearing SCID mice; assay: as above
Text: as §1, §2

[3] = non-decay corrected biodistribution data, mean ± SD

O=C(O)CC[C@H](NC(=O)N[C@@H](CCCCNC(=O)[C@H](Cc1ccc2ccccc2c1)NC(=O)[C@H]1CC[C@H](CNC(=O)[C@H](CCCCn2cc(COc3cc(CN4CCOCCOCCN(Cc5cc(OCc6cn(CCCC[C@H](NC(=O)[C@H](CCC(=O)O)NC(=O)CCCc7ccc(I)cc7)C(=O)NC[C@H]7CC[C@H](C(=O)N[C@@H](Cc8ccc9ccccc9c8)C(=O)NCCCC[C@H](NC(=O)N[C@@H](CCC(=O)O)C(=O)O)C(=O)O)CC7)nn6)cc(C(=O)O)n5)CCOCCOCC4)nc(C(=O)O)c3)nn2)NC(=O)[C@H](CCC(=O)O)NC(=O)CCCc2ccc(I)cc2)CC1)C(=O)O)C(=O)O [[^225Ac]Ac-mcp-D-alb-PSMA, metal not drawn]
tissue to tissue ratio ([1]; male, SCID, total radioactivity): 1420 | tissue uptake at 1 h ([1]; blood uptake (AV)): 8.44 %ID/g | tissue uptake at 4 h ([1]; blood uptake (AV)): 6.5 %ID/g | tissue uptake at 24 h ([1]; blood uptake (AV)): 2.85 %ID/g | tissue uptake at 48 h ([1]; blood uptake (AV)): 1.22 %ID/g | tissue uptake at 72 h ([1]; blood uptake (AV)): 0.7 %ID/g | tissue uptake at 120 h ([1]; blood uptake (AV)): 0.2 %ID/g | tissue uptake at 168 h ([1]; blood uptake (AV)): 0.11 %ID/g | tissue uptake at 1 h ([1]; femur uptake (AV)): 0.84 %ID/g | tissue uptake at 4 h ([1]; femur uptake (AV)): 0.89 %ID/g | tissue uptake at 24 h ([1]; femur uptake (AV)): 0.74 %ID/g | tissue uptake at 48 h ([1]; femur uptake (AV)): 0.96 %ID/g | tissue uptake at 72 h ([1]; femur uptake (AV)): 0.87 %ID/g | tissue uptake at 120 h ([1]; femur uptake (AV)): 1.22 %ID/g | tissue uptake at 168 h ([1]; femur uptake (AV)): 1.3 %ID/g | tissue uptake at 1 h ([1]; heart uptake (AV)): 2.47 %ID/g | tissue uptake at 4 h ([1]; heart uptake (AV)): 2.32 %ID/g | tissue uptake at 24 h ([1]; heart uptake (AV)): 1.21 %ID/g | tissue uptake at 48 h ([1]; heart uptake (AV)): 0.94 %ID/g | tissue uptake at 72 h ([1]; heart uptake (AV)): 0.82 %ID/g | tissue uptake at 120 h ([1]; heart uptake (AV)): 0.88 %ID/g | tissue uptake at 168 h ([1]; heart uptake (AV)): 0.83 %ID/g | tissue uptake at 1 h ([1]; intestine uptake (AV)): 0.8 %ID/g | tissue uptake at 4 h ([1]; intestine uptake (AV)): 0.64 %ID/g | tissue uptake at 24 h ([1]; intestine uptake (AV)): 0.58 %ID/g | tissue uptake at 48 h ([1]; intestine uptake (AV)): 0.37 %ID/g | tissue uptake at 72 h ([1]; intestine uptake (AV)): 0.26 %ID/g | tissue uptake at 120 h ([1]; intestine uptake (AV)): 0.19 %ID/g | tissue uptake at 168 h ([1]; intestine uptake (AV)): 0.17 %ID/g | tissue uptake at 1 h ([1]; kidneys uptake (AV)): 9.23 %ID/g | tissue uptake at 4 h ([1]; kidneys uptake (AV)): 21.8 %ID/g | tissue uptake at 24 h ([1]; kidneys uptake (AV)): 43.7 %ID/g | tissue uptake at 48 h ([1]; kidneys uptake (AV)): 59.9 ± 6.46 %ID/g | tissue uptake at 72 h ([1]; kidneys uptake (AV)): 50.1 %ID/g | tissue uptake at 120 h ([1]; kidneys uptake (AV)): 37.6 %ID/g | tissue uptake at 168 h ([1]; kidneys uptake (AV)): 33.7 ± 9.57 %ID/g | tissue uptake at 1 h ([1]; liver uptake (AV)): 2.42 %ID/g | tissue uptake at 4 h ([1]; liver uptake (AV)): 2.45 %ID/g | tissue uptake at 24 h ([1]; liver uptake (AV)): 2.52 %ID/g | tissue uptake at 48 h ([1]; liver uptake (AV)): 3.73 %ID/g | tissue uptake at 72 h ([1]; liver uptake (AV)): 3.39 %ID/g | tissue uptake at 120 h ([1]; liver uptake (AV)): 3.9 %ID/g | tissue uptake at 168 h ([1]; liver uptake (AV)): 4.31 %ID/g | tissue uptake at 1 h ([1]; lung uptake (AV)): 5.67 %ID/g | tissue uptake at 4 h ([1]; lung uptake (AV)): 4.57 %ID/g | tissue uptake at 24 h ([1]; lung uptake (AV)): 2.3 %ID/g | tissue uptake at 48 h ([1]; lung uptake (AV)): 2.75 %ID/g | tissue uptake at 72 h ([1]; lung uptake (AV)): 2.98 %ID/g | tissue uptake at 120 h ([1]; lung uptake (AV)): 7.5 %ID/g | tissue uptake at 168 h ([1]; lung uptake (AV)): 4.95 %ID/g | tissue uptake ([1]; maximal uptake in spleen): 11.4 ± 2.89 %ID/g | tissue uptake at 1 h ([1]; muscle uptake (AV)): 0.49 %ID/g | tissue uptake at 4 h ([1]; muscle uptake (AV)): 0.58 %ID/g | tissue uptake at 24 h ([1]; muscle uptake (AV)): 0.28 %ID/g | tissue uptake at 48 h ([1]; muscle uptake (AV)): 0.29 %ID/g | tissue uptake at 72 h ([1]; muscle uptake (AV)): 0.2 %ID/g | tissue uptake at 120 h ([1]; muscle uptake (AV)): 0.24 %ID/g | tissue uptake at 168 h ([1]; muscle uptake (AV)): 0.22 %ID/g | tissue uptake at 1 h ([1]; pancreas uptake (AV)): 0.68 %ID/g | tissue uptake at 4 h ([1]; pancreas uptake (AV)): 0.58 %ID/g | tissue uptake at 24 h ([1]; pancreas uptake (AV)): 0.5 %ID/g | tissue uptake at 48 h ([1]; pancreas uptake (AV)): 0.35 %ID/g | tissue uptake at 72 h ([1]; pancreas uptake (AV)): 0.39 %ID/g | tissue uptake at 120 h ([1]; pancreas uptake (AV)): 0.42 %ID/g | tissue uptake at 168 h ([1]; pancreas uptake (AV)): 0.37 %ID/g | tissue uptake at 1 h ([1]; spleen uptake (AV)): 7.11 %ID/g | tissue uptake at 4 h ([1]; spleen uptake (AV)): 6.21 %ID/g | tissue uptake at 24 h ([1]; spleen uptake (AV)): 5.24 %ID/g | tissue uptake at 48 h ([1]; spleen uptake (AV)): 8.33 %ID/g | tissue uptake at 72 h ([1]; spleen uptake (AV)): 10.2 %ID/g | tissue uptake at 120 h ([1]; spleen uptake (AV)): 10 %ID/g | tissue uptake at 168 h ([1]; spleen uptake (AV)): 11.4 %ID/g | tissue uptake at 1 h ([1]; stomach uptake (AV)): 0.98 %ID/g | tissue uptake at 4 h ([1]; stomach uptake (AV)): 0.59 %ID/g | tissue uptake at 24 h ([1]; stomach uptake (AV)): 0.61 %ID/g | tissue uptake at 48 h ([1]; stomach uptake (AV)): 0.4 %ID/g | tissue uptake at 72 h ([1]; stomach uptake (AV)): 0.27 %ID/g | tissue uptake at 120 h ([1]; stomach uptake (AV)): 0.34 %ID/g | tissue uptake at 168 h ([1]; stomach uptake (AV)): 0.27 %ID/g | tissue uptake at 1 h ([1]; tumor uptake (AV)): 3.35 %ID/g | tissue uptake at 4 h ([1]; tumor uptake (AV)): 10.6 %ID/g | tissue uptake at 24 h ([1]; tumor uptake (AV)): 27.6 %ID/g | tissue uptake at 48 h ([1]; tumor uptake (AV)): 57.4 %ID/g | tissue uptake at 72 h ([1]; tumor uptake (AV)): 86.4 %ID/g | tissue uptake at 120 h ([1]; tumor uptake (AV)): 120 %ID/g | tissue uptake at 168 h ([1]; tumor uptake (AV)): 127 %ID/g | tumor uptake (AV) ([2]; 168 h p.i.): 153.48 ± 37.76 %ID/g | AUC for tumor accumulation compared to monovalent counterpart ([2]; mouse, in vivo): almost double | AUCTu-to-AUCBl ([2]; mouse, in vivo): 26 | AUCTu-to-AUCKi ([2]; mouse, in vivo): 1.4 | AUCTu-to-AUCLi ([2]; mouse, in vivo): 20 | AUCTu-to-AUCLi ratio compared with monovalent version of the ligand ([2]; mouse, in vivo): 0.7 fold | blood clearance: duration of excretion ([2]; mouse, in vivo): 72 h | maximal tumor uptake compared to counterpart without dedicated albumin binder ([2]; mouse, in vivo): twelve times higher | AUC Blood [2, 3]: 249 ± 10.4 %ID/g.h | AUC Kidneys [2, 3]: 4519 ± 193 %ID/g.h | AUC Liver [2, 3]: 328 ± 15.8 %ID/g.h | AUC Tumor [2, 3]: 6455 ± 411 %ID/g.h
